Source: article PMC10786891, “Massively parallel profiling of RNA-targeting CRISPR-Cas13d”

Target: T1, EsCas13d, nuclease-dead (Eubacterium siraeum, UniProt B0MS50, R295A;H300A;R849A;H854A)
T1 sequence: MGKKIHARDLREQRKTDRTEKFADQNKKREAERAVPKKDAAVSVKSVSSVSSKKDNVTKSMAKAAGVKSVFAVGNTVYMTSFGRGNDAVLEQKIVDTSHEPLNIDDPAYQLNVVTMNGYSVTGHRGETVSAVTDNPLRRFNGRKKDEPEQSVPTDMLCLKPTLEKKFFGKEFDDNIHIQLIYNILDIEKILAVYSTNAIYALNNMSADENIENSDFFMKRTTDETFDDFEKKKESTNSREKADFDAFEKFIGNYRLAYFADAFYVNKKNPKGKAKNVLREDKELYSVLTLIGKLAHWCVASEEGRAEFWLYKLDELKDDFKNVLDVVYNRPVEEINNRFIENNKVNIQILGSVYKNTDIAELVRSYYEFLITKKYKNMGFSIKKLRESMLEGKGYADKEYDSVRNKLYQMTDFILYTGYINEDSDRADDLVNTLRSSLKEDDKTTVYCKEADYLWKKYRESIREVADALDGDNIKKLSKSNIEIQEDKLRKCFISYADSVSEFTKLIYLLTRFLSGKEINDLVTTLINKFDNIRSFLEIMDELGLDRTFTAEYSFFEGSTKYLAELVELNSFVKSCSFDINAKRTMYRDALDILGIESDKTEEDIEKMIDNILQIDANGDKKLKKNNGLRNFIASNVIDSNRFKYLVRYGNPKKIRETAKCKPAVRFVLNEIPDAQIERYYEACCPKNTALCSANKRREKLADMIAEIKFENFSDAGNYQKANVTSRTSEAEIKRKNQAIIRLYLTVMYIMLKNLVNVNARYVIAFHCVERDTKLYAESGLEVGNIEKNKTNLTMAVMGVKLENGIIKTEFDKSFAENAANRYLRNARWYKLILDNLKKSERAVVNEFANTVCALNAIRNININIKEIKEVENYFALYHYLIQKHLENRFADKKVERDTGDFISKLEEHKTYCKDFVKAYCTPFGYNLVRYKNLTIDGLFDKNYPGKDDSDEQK
Assay: crRNA (strand 1, pre-loaded); Mg2+; 40 mM Tris-HCl pH 7.5, 150 mM NaCl, 6 mM MgCl2, 1 mM DTT, 0.1% Tween-20, 0.2 mg/ml BSA; 25 C; 10 min per concentration, then washed
Conditions: tags: His6-TwinStrep-SUMO cleaved; N-terminal SNAP kept (SNAP-Surface 488); label: 3' end held by stalled T7 RNA polymerase

Binder	Kd [nM]
target 1 U10C,G13A (mixed) RNA 1: CACCCGUGCAAAAAUGCAGGGGUCUAAAACUGAGCGGAUAACCUCUCUAUGG RNA 2: GGGAAUGGAUCCACAUCUACGAAUUCGUACCAUAGAGAAGUCAUCCGCUCACCGAGAUCGGAAGAGCACACGU	13.6 ± 1
target 1 C4G,U10G (mixed) RNA 1: CACCCGUGCAAAAAUGCAGGGGUCUAAAACUGAGCGGAUAACCUCUCUAUGG RNA 2: GGGAAUGGAUCCACAUCUACGAAUUCGUACCAUAGAGAGGUGAUCCGGUCACCGAGAUCGGAAGAGCACACGU	13.6 ± 0.5
target 1 U3A,A9U (mixed) RNA 1: CACCCGUGCAAAAAUGCAGGGGUCUAAAACUGAGCGGAUAACCUCUCUAUGG RNA 2: GGGAAUGGAUCCACAUCUACGAAUUCGUACCAUAGAGAGGUUUUCCGCACACCGAGAUCGGAAGAGCACACGU	10.8 ± 0.9
target 1 insA 3' of 21,insA 3' of 17 (mixed) RNA 1: CACCCGUGCAAAAAUGCAGGGGUCUAAAACUGAGCGGAUAACCUCUCUAUGG RNA 2: GGGAAUGGAUCCACAUCUACGAAUUCGUACCAAUAGAAGAGGUUAUCCGCUCACCGAGAUCGGAAGAGCACACGU	41 ± 5
target 1 U3A,A14G (mixed) RNA 1: CACCCGUGCAAAAAUGCAGGGGUCUAAAACUGAGCGGAUAACCUCUCUAUGG RNA 2: GGGAAUGGAUCCACAUCUACGAAUUCGUACCAUAGAGGGGUUAUCCGCACACCGAGAUCGGAAGAGCACACGU	14.3 ± 1.2
target 1 insU 3' of 13,insA 3' of 12 (mixed) RNA 1: CACCCGUGCAAAAAUGCAGGGGUCUAAAACUGAGCGGAUAACCUCUCUAUGG RNA 2: GGGAAUGGAUCCACAUCUACGAAUUCGUACCAUAGAGAGUGAUUAUCCGCUCACCGAGAUCGGAAGAGCACACGU	10.1 ± 0.7
target 1 G12U,G17A (mixed) RNA 1: CACCCGUGCAAAAAUGCAGGGGUCUAAAACUGAGCGGAUAACCUCUCUAUGG RNA 2: GGGAAUGGAUCCACAUCUACGAAUUCGUACCAUAAAGAGUUUAUCCGCUCACCGAGAUCGGAAGAGCACACGU	59 ± 8
target 1 C7G,G12U (mixed) RNA 1: CACCCGUGCAAAAAUGCAGGGGUCUAAAACUGAGCGGAUAACCUCUCUAUGG RNA 2: GGGAAUGGAUCCACAUCUACGAAUUCGUACCAUAGAGAGUUUAUGCGCUCACCGAGAUCGGAAGAGCACACGU	14.3 ± 1.1
target 1 insA 3' of 4,insG 3' of 3 (mixed) RNA 1: CACCCGUGCAAAAAUGCAGGGGUCUAAAACUGAGCGGAUAACCUCUCUAUGG RNA 2: GGGAAUGGAUCCACAUCUACGAAUUCGUACCAUAGAGAGGUUAUCCGCAUGCACCGAGAUCGGAAGAGCACACGU	6.5 ± 0.4
target 1 U10A,U19C (mixed) RNA 1: CACCCGUGCAAAAAUGCAGGGGUCUAAAACUGAGCGGAUAACCUCUCUAUGG RNA 2: GGGAAUGGAUCCACAUCUACGAAUUCGUACCACAGAGAGGUAAUCCGCUCACCGAGAUCGGAAGAGCACACGU	35 ± 4
target 1 C2U,G5C (mixed) RNA 1: CACCCGUGCAAAAAUGCAGGGGUCUAAAACUGAGCGGAUAACCUCUCUAUGG RNA 2: GGGAAUGGAUCCACAUCUACGAAUUCGUACCAUAGAGAGGUUAUCCCCUUACCGAGAUCGGAAGAGCACACGU	12.4 ± 0.8
target 1 insG 3' of 22,insC 3' of 20 (mixed) RNA 1: CACCCGUGCAAAAAUGCAGGGGUCUAAAACUGAGCGGAUAACCUCUCUAUGG RNA 2: GGGAAUGGAUCCACAUCUACGAAUUCGUACGCACUAGAGAGGUUAUCCGCUCACCGAGAUCGGAAGAGCACACGU	8.4 ± 0.7
target 1 C4U,C6A (mixed) RNA 1: CACCCGUGCAAAAAUGCAGGGGUCUAAAACUGAGCGGAUAACCUCUCUAUGG RNA 2: GGGAAUGGAUCCACAUCUACGAAUUCGUACCAUAGAGAGGUUAUCAGUUCACCGAGAUCGGAAGAGCACACGU	7.52 ± 0.33
target 1 C7G,U19G (mixed) RNA 1: CACCCGUGCAAAAAUGCAGGGGUCUAAAACUGAGCGGAUAACCUCUCUAUGG RNA 2: GGGAAUGGAUCCACAUCUACGAAUUCGUACCAGAGAGAGGUUAUGCGCUCACCGAGAUCGGAAGAGCACACGU	34 ± 10
target 1 C7G,U11C (mixed) RNA 1: CACCCGUGCAAAAAUGCAGGGGUCUAAAACUGAGCGGAUAACCUCUCUAUGG RNA 2: GGGAAUGGAUCCACAUCUACGAAUUCGUACCAUAGAGAGGCUAUGCGCUCACCGAGAUCGGAAGAGCACACGU	14.6 ± 0.6
target 1 insG 3' of 10,insG 3' of 7 (mixed) RNA 1: CACCCGUGCAAAAAUGCAGGGGUCUAAAACUGAGCGGAUAACCUCUCUAUGG RNA 2: GGGAAUGGAUCCACAUCUACGAAUUCGUACCAUAGAGAGGUUGAUCGCGCUCACCGAGAUCGGAAGAGCACACGU	12.5 ± 0.6
target 1 U8A,G12C (mixed) RNA 1: CACCCGUGCAAAAAUGCAGGGGUCUAAAACUGAGCGGAUAACCUCUCUAUGG RNA 2: GGGAAUGGAUCCACAUCUACGAAUUCGUACCAUAGAGAGCUUAACCGCUCACCGAGAUCGGAAGAGCACACGU	16.5 ± 1.2
target 1 insG 3' of 8,insC 3' of 5 (mixed) RNA 1: CACCCGUGCAAAAAUGCAGGGGUCUAAAACUGAGCGGAUAACCUCUCUAUGG RNA 2: GGGAAUGGAUCCACAUCUACGAAUUCGUACCAUAGAGAGGUUAUGCCGCCUCACCGAGAUCGGAAGAGCACACGU	10.2 ± 0.4
target 1 insU 3' of 7,insU 3' of 1 (mixed) RNA 1: CACCCGUGCAAAAAUGCAGGGGUCUAAAACUGAGCGGAUAACCUCUCUAUGG RNA 2: GGGAAUGGAUCCACAUCUACGAAUUCGUACCAUAGAGAGGUUAUCUCGCUCAUCCGAGAUCGGAAGAGCACACGU	18.4 ± 0.9
target 1 insG 3' of 22,insU 3' of 18 (mixed) RNA 1: CACCCGUGCAAAAAUGCAGGGGUCUAAAACUGAGCGGAUAACCUCUCUAUGG RNA 2: GGGAAUGGAUCCACAUCUACGAAUUCGUACGCAUAUGAGAGGUUAUCCGCUCACCGAGAUCGGAAGAGCACACGU	74 ± 18
target 1 insA 3' of 22,insA 3' of 15 (mixed) RNA 1: CACCCGUGCAAAAAUGCAGGGGUCUAAAACUGAGCGGAUAACCUCUCUAUGG RNA 2: GGGAAUGGAUCCACAUCUACGAAUUCGUACACAUAGAGAAGGUUAUCCGCUCACCGAGAUCGGAAGAGCACACGU	7.9 ± 0.4
target 1 insU 3' of 13,insA 3' of 5 (mixed) RNA 1: CACCCGUGCAAAAAUGCAGGGGUCUAAAACUGAGCGGAUAACCUCUCUAUGG RNA 2: GGGAAUGGAUCCACAUCUACGAAUUCGUACCAUAGAGAGUGUUAUCCGACUCACCGAGAUCGGAAGAGCACACGU	15.7 ± 2.7
target 1 U3C,A9G (mixed) RNA 1: CACCCGUGCAAAAAUGCAGGGGUCUAAAACUGAGCGGAUAACCUCUCUAUGG RNA 2: GGGAAUGGAUCCACAUCUACGAAUUCGUACCAUAGAGAGGUUGUCCGCCCACCGAGAUCGGAAGAGCACACGU	30.5 ± 3.2
target 1 A16G,G17C (mixed) RNA 1: CACCCGUGCAAAAAUGCAGGGGUCUAAAACUGAGCGGAUAACCUCUCUAUGG RNA 2: GGGAAUGGAUCCACAUCUACGAAUUCGUACCAUACGGAGGUUAUCCGCUCACCGAGAUCGGAAGAGCACACGU	76 ± 10
target 1 G13C,A14G (mixed) RNA 1: CACCCGUGCAAAAAUGCAGGGGUCUAAAACUGAGCGGAUAACCUCUCUAUGG RNA 2: GGGAAUGGAUCCACAUCUACGAAUUCGUACCAUAGAGGCGUUAUCCGCUCACCGAGAUCGGAAGAGCACACGU	31 ± 5
target 1 insU 3' of 5,insA 3' of 5 (mixed) RNA 1: CACCCGUGCAAAAAUGCAGGGGUCUAAAACUGAGCGGAUAACCUCUCUAUGG RNA 2: GGGAAUGGAUCCACAUCUACGAAUUCGUACCAUAGAGAGGUUAUCCGUACUCACCGAGAUCGGAAGAGCACACGU	13.9 ± 0.6
target 1 G17U,A18U (mixed) RNA 1: CACCCGUGCAAAAAUGCAGGGGUCUAAAACUGAGCGGAUAACCUCUCUAUGG RNA 2: GGGAAUGGAUCCACAUCUACGAAUUCGUACCAUUUAGAGGUUAUCCGCUCACCGAGAUCGGAAGAGCACACGU	29.8 ± 2.8
target 1 insC 3' of 19,insA 3' of 10 (mixed) RNA 1: CACCCGUGCAAAAAUGCAGGGGUCUAAAACUGAGCGGAUAACCUCUCUAUGG RNA 2: GGGAAUGGAUCCACAUCUACGAAUUCGUACCAUCAGAGAGGUUAAUCCGCUCACCGAGAUCGGAAGAGCACACGU	57 ± 5
